In article PMC6100724, “Proteome‐wide analysis of phospho‐regulated PDZ domain interactions” (Molecular Systems Biology, 2018):
Blank lines part the entries; values can stand above or below the substance they belong to.

What was measured:
[1] = molecular target: FITC-HTNETEL, phosphomimetic (p-1) MCC peptide (human); assay: MST; FITC-labeled peptide fixed at 25-50 nM, DLG1 PDZ2 titrated (1:1 dilution series); 50 mM Tris-HCl pH 7.4, 0.1% Tween-20; KD from thermophoresis and T-Jump signal; n = 3
[2] = molecular target: FITC-…, phosphomimetic (p-6) TANC1 peptide (human); assay: as above
[3] = molecular target: Scribble PDZ1 (human, aa 719-829) (human) (UniProt Q14160); assay: ITC; iTC200, 25°C, 20 mM HEPES pH 7.4; protein 50-100 µM in the cell, 0.64-3 mM peptide in the syringe; single-site fit, stoichiometry fixed to 0.8-1.1; triplicate
Chain of Scribble PDZ1 (human, aa 719-829) (human) (Q14160 719-829): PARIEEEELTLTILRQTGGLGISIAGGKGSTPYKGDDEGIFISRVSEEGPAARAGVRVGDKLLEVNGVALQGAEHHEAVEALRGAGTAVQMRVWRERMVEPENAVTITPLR

Scribble PDZ1, 719-829 = Scribble PDZ1, 719-829 (UniProt Q14160); assay: ITC; details: reference: unphosphorylated …; sites S730
Chain of Scribble PDZ1, 719-829 (Q14160 whole entry, looked up, tested part not stated): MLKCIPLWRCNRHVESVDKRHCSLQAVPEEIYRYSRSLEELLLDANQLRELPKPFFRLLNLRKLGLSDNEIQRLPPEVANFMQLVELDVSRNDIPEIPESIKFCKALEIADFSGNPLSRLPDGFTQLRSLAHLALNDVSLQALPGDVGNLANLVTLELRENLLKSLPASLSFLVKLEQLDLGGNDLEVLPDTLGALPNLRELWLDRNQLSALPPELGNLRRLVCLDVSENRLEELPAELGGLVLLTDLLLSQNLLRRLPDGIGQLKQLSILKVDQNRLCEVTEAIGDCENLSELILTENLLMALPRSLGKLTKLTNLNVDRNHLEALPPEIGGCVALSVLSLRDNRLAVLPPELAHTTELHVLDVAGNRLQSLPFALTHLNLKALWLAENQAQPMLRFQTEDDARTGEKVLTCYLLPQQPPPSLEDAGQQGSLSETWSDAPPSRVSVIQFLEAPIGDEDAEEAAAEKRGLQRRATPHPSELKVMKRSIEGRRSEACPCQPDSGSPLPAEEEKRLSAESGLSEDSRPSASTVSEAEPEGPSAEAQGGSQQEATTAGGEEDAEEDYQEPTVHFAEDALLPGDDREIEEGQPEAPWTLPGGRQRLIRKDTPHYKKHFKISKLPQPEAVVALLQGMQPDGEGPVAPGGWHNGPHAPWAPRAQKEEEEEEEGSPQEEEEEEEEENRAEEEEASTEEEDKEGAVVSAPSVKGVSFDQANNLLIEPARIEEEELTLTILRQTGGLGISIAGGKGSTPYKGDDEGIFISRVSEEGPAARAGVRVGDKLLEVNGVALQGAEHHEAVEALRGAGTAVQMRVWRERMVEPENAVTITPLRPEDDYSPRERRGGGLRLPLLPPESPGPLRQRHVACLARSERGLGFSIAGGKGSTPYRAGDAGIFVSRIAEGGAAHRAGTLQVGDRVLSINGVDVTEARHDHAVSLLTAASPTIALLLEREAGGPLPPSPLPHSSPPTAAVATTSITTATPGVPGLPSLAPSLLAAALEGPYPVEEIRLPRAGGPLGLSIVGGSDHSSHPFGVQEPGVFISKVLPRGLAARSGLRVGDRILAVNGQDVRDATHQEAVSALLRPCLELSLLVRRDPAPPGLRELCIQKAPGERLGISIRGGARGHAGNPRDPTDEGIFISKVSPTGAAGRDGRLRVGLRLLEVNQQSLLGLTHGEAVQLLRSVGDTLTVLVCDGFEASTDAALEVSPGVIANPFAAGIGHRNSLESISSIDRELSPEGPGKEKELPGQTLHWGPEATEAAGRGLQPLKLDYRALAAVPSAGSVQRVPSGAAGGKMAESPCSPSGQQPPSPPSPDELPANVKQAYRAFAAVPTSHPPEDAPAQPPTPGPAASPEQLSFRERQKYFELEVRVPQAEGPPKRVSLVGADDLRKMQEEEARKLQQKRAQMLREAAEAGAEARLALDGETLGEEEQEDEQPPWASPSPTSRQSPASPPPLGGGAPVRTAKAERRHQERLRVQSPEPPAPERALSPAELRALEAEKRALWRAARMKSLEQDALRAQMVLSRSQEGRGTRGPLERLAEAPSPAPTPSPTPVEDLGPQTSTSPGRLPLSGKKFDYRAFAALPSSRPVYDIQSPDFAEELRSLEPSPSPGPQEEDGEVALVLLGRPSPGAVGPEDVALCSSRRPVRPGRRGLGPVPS

Chain of DLG1 PDZ2 (human DLG1 PDZ2 aa 311-407) (Q12959 311-407): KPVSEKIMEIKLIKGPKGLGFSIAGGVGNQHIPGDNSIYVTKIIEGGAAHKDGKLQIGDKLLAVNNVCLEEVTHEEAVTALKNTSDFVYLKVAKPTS

Kd [1]: 21 µM
Kd [2]: 5.1 µM
Substance: DLG1 PDZ2 (human DLG1 PDZ2 aa 311-407) (from UniProt Q12959 311-407) (domain or fragment)

Kd [3]: 1.2 µM
Substance: MAPK12 peptide … (unphosphorylated)

fold change (Scribble PDZ1, 719-829): stronger
Substance: RPS6KA2 C-terminal 9 residues (from UniProt Q15349) MKRLTpSTRL
